According to article doi:10.1101/2025.06.17.660072:

Test system: PSMα3
Assay: EMSA

Substance | Kd [µM]
Poly (A) RNA, oligoA | 94.5
Poly (AU) RNA, oligoA/oligoU duplex | 61.8
